Test [1] addresses human FKBP (12 kD, GenBank accession number: AAP36774.1) (human) (UniProt P62942). As to the kind of experiment: cell-based or functional assay.
For test [2], the target named is FRB (11 kD, PDB access number: 1AUE A) (UniProt P42345). As to the kind of experiment: cell-based or functional assay.

Chain of human FKBP (12 kD, GenBank accession number: AAP36774.1) (human) (P62942 whole entry): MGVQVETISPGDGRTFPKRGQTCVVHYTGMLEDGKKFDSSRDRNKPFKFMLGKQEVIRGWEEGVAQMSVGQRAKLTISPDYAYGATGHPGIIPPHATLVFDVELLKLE
Chain of human FKBP (12 kD, GenBank accession number: AAP36774.1) (P62942 whole entry): as above

On to “FRB (11 kD, PDB access number: 1AUE A) (from UniProt P42345 2015-2114)”, for which, in test [1], the bioluminescence intensity of probe TPv2.4 (printed 'TPv2') in COS-7 lysate, 10^-6 M rapamycin vs vehicle is 6.7 fold; the bioluminescence of living COS-7 cells expressing TPv2.4 on a microslide, 10^-6 M rapamycin vs control is 6 fold; the bioluminescence of probe TPv2.7 (FRB-ALuc30(1-212)-FKBP), 10^-6 M rapamycin vs vehicle was determined as 2 fold; the bioluminescence of probe TPv2.8 (FRB-ALuc30(19-212)-FKBP), 10^-6 M rapamycin vs vehicle turned out to be 2 fold. In addition, the luminescence intensity of cells expressing TPv2.4, 10^-6 M rapamycin in test [1] was found to be 5.4 fold.

“human FKBP (12 kD, GenBank accession number: AAP36774.1) (from UniProt P62942 1-108)”: in test [2], the optical intensity of probe TPv1.3 (printed 'TPv11.3'; FKBP-ALuc23(1-212)-FRB) with 10^-6 M rapamycin (fraction of intensity without rapamycin) was 0.33 and the optical intensity of probe TPv1.7 (FKBP-ALuc30(1-212)-FRB) with 10^-6 M rapamycin (fraction of intensity without rapamycin) worked out at 0.33.

(Values after patent US20180265850A1.)
